What all share (assay): SPR
A general note: SPR reads the build-up and loss of mass on a sensor chip optically.

For one data set, the target named is JAG1 (human, UniProt P78504 34-1067, biotin on the biotin-acceptor site (enzymatic, co-transfected BirA)).
The data set “SPR” deals with the molecule itself.
The next data set concerns the target T1, PI16 (Homo sapiens).
T1 chain: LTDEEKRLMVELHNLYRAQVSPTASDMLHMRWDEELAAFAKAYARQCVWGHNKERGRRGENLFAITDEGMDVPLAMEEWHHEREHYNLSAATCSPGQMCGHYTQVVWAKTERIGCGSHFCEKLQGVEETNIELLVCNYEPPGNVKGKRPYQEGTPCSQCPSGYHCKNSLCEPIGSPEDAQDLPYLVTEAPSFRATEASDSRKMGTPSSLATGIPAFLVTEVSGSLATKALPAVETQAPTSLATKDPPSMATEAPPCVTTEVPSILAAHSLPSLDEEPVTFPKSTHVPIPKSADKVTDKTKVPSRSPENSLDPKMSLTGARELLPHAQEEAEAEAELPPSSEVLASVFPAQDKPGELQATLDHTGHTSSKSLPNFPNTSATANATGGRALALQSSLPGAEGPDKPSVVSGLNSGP

The target of the next data set is T2, PVR (human, UniProt P15151 21-343, biotin on the biotin-acceptor site (enzymatic, co-transfected BirA)).
T2 chain: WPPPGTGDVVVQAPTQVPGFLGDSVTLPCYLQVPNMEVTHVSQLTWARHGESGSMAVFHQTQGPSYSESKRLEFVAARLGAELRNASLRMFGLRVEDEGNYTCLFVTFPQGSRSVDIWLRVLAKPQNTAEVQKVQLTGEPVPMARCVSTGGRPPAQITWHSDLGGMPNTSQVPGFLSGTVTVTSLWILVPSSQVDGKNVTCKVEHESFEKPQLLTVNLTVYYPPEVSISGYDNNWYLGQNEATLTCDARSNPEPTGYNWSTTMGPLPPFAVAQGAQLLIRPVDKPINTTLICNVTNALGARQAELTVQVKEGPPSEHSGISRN

The next data set deals with T3, TNR16 (Homo sapiens).
T3 chain: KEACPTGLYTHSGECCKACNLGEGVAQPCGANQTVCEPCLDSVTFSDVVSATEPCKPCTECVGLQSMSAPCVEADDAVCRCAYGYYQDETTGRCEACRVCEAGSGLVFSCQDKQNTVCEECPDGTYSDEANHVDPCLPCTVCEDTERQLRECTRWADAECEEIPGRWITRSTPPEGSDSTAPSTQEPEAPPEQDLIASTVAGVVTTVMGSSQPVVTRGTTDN

A further data set has as its target FGFR2 (Homo sapiens).
A further data set has as its target T4, CDH2 (Homo sapiens).
T4 chain: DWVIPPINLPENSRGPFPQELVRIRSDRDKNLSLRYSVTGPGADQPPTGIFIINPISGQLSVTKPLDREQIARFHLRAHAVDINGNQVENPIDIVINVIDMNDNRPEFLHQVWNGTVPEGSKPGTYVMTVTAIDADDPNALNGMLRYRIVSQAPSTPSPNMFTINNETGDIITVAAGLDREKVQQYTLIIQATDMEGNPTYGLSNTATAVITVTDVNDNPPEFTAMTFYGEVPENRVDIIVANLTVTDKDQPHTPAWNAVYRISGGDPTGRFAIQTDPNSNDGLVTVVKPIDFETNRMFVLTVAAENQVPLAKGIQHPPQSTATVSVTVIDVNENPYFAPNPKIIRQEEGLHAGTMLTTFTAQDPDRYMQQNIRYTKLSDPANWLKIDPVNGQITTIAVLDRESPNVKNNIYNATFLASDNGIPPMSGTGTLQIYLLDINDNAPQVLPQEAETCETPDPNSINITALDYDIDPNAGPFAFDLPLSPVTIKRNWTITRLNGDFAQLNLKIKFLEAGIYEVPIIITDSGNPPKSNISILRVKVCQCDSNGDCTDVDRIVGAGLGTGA

The target in a further data set is T5, CNTN1 (human, UniProt Q12860 21-993, biotin on the biotin-acceptor site (enzymatic, co-transfected BirA)).
T5 chain: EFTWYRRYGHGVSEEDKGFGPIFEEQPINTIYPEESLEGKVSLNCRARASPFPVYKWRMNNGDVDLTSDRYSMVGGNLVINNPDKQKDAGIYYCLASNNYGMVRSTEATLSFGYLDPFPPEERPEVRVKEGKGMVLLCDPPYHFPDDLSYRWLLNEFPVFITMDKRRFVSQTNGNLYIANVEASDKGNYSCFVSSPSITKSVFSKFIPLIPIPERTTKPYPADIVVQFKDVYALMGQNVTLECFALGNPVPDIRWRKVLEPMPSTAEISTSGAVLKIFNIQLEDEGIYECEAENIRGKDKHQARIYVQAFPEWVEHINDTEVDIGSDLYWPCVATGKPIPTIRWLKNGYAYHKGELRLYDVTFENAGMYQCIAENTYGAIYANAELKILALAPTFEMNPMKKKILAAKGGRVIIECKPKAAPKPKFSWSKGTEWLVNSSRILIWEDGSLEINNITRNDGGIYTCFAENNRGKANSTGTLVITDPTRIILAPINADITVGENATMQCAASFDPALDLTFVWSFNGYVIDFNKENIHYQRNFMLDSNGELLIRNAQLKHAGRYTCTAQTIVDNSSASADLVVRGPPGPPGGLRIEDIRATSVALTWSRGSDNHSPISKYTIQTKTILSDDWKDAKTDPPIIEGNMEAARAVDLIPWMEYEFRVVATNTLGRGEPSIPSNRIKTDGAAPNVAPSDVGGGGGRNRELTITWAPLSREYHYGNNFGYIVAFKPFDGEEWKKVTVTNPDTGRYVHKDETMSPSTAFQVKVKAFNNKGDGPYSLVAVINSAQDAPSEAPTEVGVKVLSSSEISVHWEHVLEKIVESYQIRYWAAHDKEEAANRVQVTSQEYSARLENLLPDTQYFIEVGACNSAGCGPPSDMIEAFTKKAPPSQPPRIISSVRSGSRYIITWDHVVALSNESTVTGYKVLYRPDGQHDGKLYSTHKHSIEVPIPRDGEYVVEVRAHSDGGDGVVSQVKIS

B1: VASN (receptor)
chain: CPSGCQCSQPQTVFCTARQGTTVPRDVPPDTVGLYVFENGITMLDAGSFAGLPGLQLLDLSQNQIASLPSGVFQPLANLSNLDLTANRLHEITNETFRGLRRLERLYLGKNRIRHIQPGAFDTLDRLLELKLQDNELRALPPLRLPRLLLLDLSHNSLLALEPGILDTANVEALRLAGLGLQQLDEGLFSRLRNLHDLDVSDNQLERVPPVIRGLRGLTRLRLAGNTRIAQLRPEDLAGLAALQELDVSNLSLQALPGDLSGLFPRLRLLAAARNPFNCVCPLSWFGPWVRESHVTLASPEETRCHFPPKNAGRLLLELDYADFGCPATTTTATVPTTRPVVREPTALSSSLAPTWLSPTEPATEAPSPPSTAPPTVGPVPQPQDCPPSTCLNGGTCHLGTRHHLACLCPEGFTGLYCESQMGQGTRPSPTPVTPRPPRSLTLGIEPVSPTSLRVGLQRYLQGSSVQLRSLRLTYRNLSGPDKRLVTLRLPASLAEYTVTQLRPNATYSVCVMPLGPGRVPEGEEACGEAHTPPAVHSNHAPVTQAREGNLP
modifications: biotin on the biotin-acceptor site (enzymatic, co-transfected BirA)
As for B1, the off-rate constant (koff) (commonly the first-order rate constant of dissociation) with JAG1 was roughly 0.1 s⁻¹.

B2: MPZL1 (protein)
chain: SALEVYTPKEIFVANGTQGKLTCKFKSTSTTGGLTSVSWSFQPEGADTTVSFFHYSQGQVYLGNYPPFKDRISWAGDLDKKDASINIENMQFIHNGTYICDVKNPPDIVVQPGHIRLYVVEKENLPV
Regarding B2, the koff in “SPR” was roughly 0.6 s⁻¹.

B3: TNR21 (protein)
chain: QPEQKASNLIGTYRHVDRATGQVLTCDKCPAGTYVSEHCTNTSLRVCSSCPVGTFTRHENGIEKCHDCSQPCPWPMIEKLPCAALTDRECTCPPGMFQSNATCAPHTVCPVGWGVRKKGTETEDVRCKQCARGTFSDVPSSVMKCKAYTDCLSQNLVVIKPGTKETDNVCGTLPSFSSSTSPSPGTAIFPRPEHMETHEVPSSTYVPKGMNSTESNSSASVRPKVLSSIQEGTVPDNTSSARGKEDVNKTLPNLQVVNHQQGPHHRHILKLLPSMEATGGEKSSTPIKGPKRGHPRQNLHKHFDINEH
B3 yielded a koff with PI16 of roughly 2 s⁻¹.

B4: KIR2DL5A (receptor)
chain: HEGGQDKPLLSAWPSAVVPRGGHVTLLCRSRLGFTIFSLYKEDGVPVPELYNKIFWKSILMGPVTPAHAGTYRCRGSHPRSPIEWSAPSNPLVIVVTGLFGKPSLSAQPGPTVRTGENVTLSCSSRSSFDMYHLSREGRAHEPRLPAVPSVNGTFQADFPLGPATHGGTYTCFGSLHDSPYEWSDPSDPLLVSVTGNSSSSSSSPTEPSSKTGIRRH
modifications: biotin on the biotin-acceptor site (enzymatic, co-transfected BirA)
In the data set with PVR, B4 gave a koff of roughly 0.9 s⁻¹.

B5: CD80 (protein)
chain: VIHVTKEVKEVATLSCGHNVSVEELAQTRIYWQKEKKMVLTMMSGDMNIWPEYKNRTIFDITNNLSIVILALRPSDEGTYECVVLKYEKDAFKREHLAEVTLSVKADFPTPSISDFEIPTSNIRRIICSTSGGFPEPHLSWLENGEELNAINTTVSQDPETELYAVSSKLDFNMTTNHSFMCLIKYGHLRVNQTFNWNTTKQEHFPDN
Consider B5, for which, in the data set with TNR16, the koff is roughly 1.4 s⁻¹.

B6: FCER2 (protein)
chain: DTTQSLKQLEERAARNVSQVSKNLESHHGDQMAQKSQSTQISQELEELRAEQQRLKSQDLELSWNLNGLQADLSSFKSQELNERNEASDLLERLREEVTKLRMELQVSSGFVCNTCPEKWINFQRKCYYFGKGTKQWVHARYACDDMEGQLVSIHSPEEQDFLTKHASHTGSWIGLRNLDLKGEFIWVDGSHVDYSNWAPGEPTSRSQGEDCVMMRGSGRWNDAFCDRKLGAWVCDRLATCTPPASEGSAESMGPDSRPDPDGRLPTPSAPLHS
With B6, the koff in the data set with FGFR2 is roughly 0.01 s⁻¹.

B7: FCER2 (protein)
chain: B6 chain
modifications: propeptide assumed removed
Take B7: the koff with CDH2 was roughly 0.6 s⁻¹.

B8: NRCAM (protein)
chain: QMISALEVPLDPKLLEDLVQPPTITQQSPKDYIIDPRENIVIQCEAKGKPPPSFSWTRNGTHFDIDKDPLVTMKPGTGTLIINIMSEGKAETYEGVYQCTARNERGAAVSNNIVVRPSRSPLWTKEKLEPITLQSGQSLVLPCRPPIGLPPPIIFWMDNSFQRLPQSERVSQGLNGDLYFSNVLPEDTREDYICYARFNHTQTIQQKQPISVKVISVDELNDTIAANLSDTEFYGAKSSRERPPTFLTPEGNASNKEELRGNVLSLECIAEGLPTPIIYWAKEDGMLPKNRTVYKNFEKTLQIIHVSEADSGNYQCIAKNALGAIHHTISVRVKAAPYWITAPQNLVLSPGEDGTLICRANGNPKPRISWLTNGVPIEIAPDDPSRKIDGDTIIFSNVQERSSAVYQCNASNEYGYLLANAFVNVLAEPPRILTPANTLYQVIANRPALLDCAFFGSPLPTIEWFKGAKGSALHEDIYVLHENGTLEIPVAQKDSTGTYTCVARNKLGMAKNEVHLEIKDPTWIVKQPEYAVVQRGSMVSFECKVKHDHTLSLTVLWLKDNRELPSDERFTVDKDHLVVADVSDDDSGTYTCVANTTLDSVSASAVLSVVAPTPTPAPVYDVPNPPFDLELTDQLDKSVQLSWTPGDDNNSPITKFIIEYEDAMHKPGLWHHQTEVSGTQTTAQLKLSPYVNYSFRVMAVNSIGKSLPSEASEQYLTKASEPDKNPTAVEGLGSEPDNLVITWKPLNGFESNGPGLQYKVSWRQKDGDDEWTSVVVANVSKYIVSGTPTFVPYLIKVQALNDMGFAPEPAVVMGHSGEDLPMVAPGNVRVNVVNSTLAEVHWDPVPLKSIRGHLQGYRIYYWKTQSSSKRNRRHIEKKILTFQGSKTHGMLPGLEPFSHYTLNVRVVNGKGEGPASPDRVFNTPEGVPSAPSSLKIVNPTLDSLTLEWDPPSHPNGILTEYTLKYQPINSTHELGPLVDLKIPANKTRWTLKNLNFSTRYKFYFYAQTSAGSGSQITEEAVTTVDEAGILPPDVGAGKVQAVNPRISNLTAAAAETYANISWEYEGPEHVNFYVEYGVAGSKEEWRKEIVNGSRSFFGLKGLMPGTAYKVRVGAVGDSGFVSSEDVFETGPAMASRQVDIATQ
In the data set with CNTN1, B8 gave a koff of roughly 0.7 s⁻¹.

Values taken from article PMC9365698 (2022).
